{"source": "patent US20060292157A1", "about": "(TRUSTEES OF COLUMBIA UNIVERSITY IN THE CITY OF NEW YORK, published 2006)", "binders": {"B1": {"name": "Flag-tagged M4 (amino acids 104-206 of MDA-7/IL-24, pCMV3xFlag) (other)", "chain": "ESCYLVHTLLEFYLKTVFKNYHNRTVEVRTLKSFSTLANNFVLIVSQLQPSQENEMFSIRDSAHRRFLLFRRAFKQLDVEAALTKALGEVDILLTWMQKFYKL", "notes": "Transiently expressed in HeLa cells; also called Flag M4; not shown: three Flag tags at the N-terminus from vector pCMV3xFlag (Sigma)"}}, "biological_target": "T1, BiP/GRP78 (endogenous) (human (endogenous in human HeLa cells), UniProt P11021 19-654)", "T1 construct": "Immunoprecipitated from cell lysates with BiP/GRP78 antibodies; also called ER chaperone BiP/GRP78", "T1 sequence (P11021 19-654 limits assumed)": "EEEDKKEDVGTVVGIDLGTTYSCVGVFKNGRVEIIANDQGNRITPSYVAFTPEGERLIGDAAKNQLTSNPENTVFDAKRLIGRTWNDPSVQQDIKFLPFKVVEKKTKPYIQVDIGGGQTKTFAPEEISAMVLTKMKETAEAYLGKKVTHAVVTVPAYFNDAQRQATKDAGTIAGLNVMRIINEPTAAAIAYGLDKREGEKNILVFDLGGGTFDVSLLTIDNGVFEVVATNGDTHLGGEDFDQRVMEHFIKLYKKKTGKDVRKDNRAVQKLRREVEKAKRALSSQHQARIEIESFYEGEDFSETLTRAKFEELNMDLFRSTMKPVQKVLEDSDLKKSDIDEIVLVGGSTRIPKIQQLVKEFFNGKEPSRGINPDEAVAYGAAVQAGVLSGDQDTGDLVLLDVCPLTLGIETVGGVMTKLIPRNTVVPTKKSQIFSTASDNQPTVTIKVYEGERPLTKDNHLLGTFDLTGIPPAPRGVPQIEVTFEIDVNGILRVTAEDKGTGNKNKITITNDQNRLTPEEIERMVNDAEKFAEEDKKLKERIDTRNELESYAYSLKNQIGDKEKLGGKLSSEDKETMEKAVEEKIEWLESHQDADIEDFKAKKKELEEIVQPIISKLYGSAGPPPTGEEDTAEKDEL", "experiment": "co-IP with BiP/GRP78 antibodies, blot with Flag antibodies; wild type against C/F mutants; HeLa and P69 cells", "from_the_text": "These mutants were used to examine whether disruption of these regions altered interaction with BiP/GRP78 in HeLa (FIG. 11E) and P69 cells. BiP/GRP78 was immunoprecipitated using BiP/GRP78 antibodies and the membrane was probed with Flag antibodies (FIG. 11E). The C/F helix mutants of MDA-7/1IL-24 and M4 lost their ability to bind to BiP/GRP78 (FIG. 11E).\nCells were infected with Ad.vec, Ad.M4 or Ad.mda-7 or transfected with various plasmid (Flag tagged MDA7 or M4 and Myc tagged BiP) constructs in a 100-mm dish and after 48 h cells were rinsed with ice-cold phosphate buffered saline (PBS). Cells were lysed in 1 ml of immunoprecipitation buffer containing 25 mM Tris-Cl pH8.0, 137 mM NaCl, 2.5 mM KCl, 1% Triton X-100 and protease inhibitor mix. Cells were scrapped from the plates, transferred into microfuge tubes and rotated at 4° C. for 30 minutes. Tubes were centrifuged for 10 min at 13,000 rpm and 10 μl of supernatant were incubated with 50% Protein A agarose and rotated at 4° C. for 1 h to eliminate non-specific interactions. Samples were centrifuged and mixed with anti BiP/Grp78 or 9E10 myc monoclonal antibodies (1:200) dilution and rotated overnight at 4° C. Immune-complexes were precipitated with 25 μl of 50% protein A agarose for 2 h. […]", "data": [{"binder": "B1", "values": [{"measurement": "binding result", "result": "binds"}]}]}
